Assay results published in paper doi:10.1101/2025.10.28.685041.

Molecular target: Rhs2 C-terminal toxin domain (Rhs2CT), His6 tag removed, as in the Rhs2CT-RhsI2-EF-Tu complex (Serratia marcescens Db10)
Assay: SEC

| Substance | stoichiometry N |
| --- | --- |
| E. coli elongation factor thermo-unstable (EF-Tu) (from UniProt P0CE47 1-394) (natural protein) | 1 |
| RhsI2 immunity protein, untagged (natural protein) | 1 |
